The target in the assay is GST-HA-ATG16L1(231–607), Q676U5. Description: peptide microarray. As to conditions: chain shown with the change; 800, 600, 400 nM; n = 9; read off a plot.
GST-HA-ATG16L1(231–607), Q676U5, sequence (Q676U5 231-607): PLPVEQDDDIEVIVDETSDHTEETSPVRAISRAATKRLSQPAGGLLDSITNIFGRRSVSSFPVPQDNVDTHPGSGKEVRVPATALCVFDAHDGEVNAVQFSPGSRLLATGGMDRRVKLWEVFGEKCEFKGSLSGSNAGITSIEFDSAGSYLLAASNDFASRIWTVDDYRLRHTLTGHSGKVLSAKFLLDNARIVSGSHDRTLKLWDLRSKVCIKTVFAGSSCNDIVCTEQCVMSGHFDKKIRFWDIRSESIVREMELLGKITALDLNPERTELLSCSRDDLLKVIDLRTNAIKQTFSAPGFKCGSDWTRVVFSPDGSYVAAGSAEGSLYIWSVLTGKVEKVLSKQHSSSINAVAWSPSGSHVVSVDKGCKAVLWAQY

B1: TMEM59 peptide (residues 268–280), wild type, Q9BXS4 K273del; S275del; I276del (peptide)
chain: YVPSELYGDL
With B1, the percent of parent turned out to be 110 % WT.

B2: TMEM59 peptide (residues 268–280), wild type, Q9BXS4 V269del; P270del; S271del (peptide)
chain: YEKLSIYGDL
Take B2: the percent of parent stood at 160 % WT.

The record behind these values is PMC7679444.
